Experimental data: article PMC4976356, “Structural insight into β-Clamp and its interaction with DNA Ligase in Helicobacter pylori” (Scientific Reports, 2016)

Assays:
[1] = biological target: T1, NAD-dependent DNA ligase from Helicobacter pylori 26695 (Helicobacter pylori 26695, UniProt O25336 1-656); details: both partners purified
T1 construct: Cloned and expressed in a similar manner to the β-clamp (NcoI/XhoI, pET 28(b)); by the printed forward primer Met-Gly would stand before Met1, and the reverse primer has no stop codon, so a C-terminal vector His tag is likely (surmised); also called HpDNA ligase; Hpligase; source: E. coli BL21, purified (Ni Sepharose, HiLoad G200 gel filtration)

[2] = biological target: the molecule itself; assay: SEC; gel filtration on HiLoad G200 16/60; 30 mM Tris pH 7.5, 150 mM NaCl, 5% glycerol, 30 mM arginine, 6 mM βMe

B1: β-clamp from Helicobacter pylori 26695 (natural protein, UniProt O25242 1-374, looked up)
chain: MKISVSKNDLENALRYLQAFLDKKDASSIASHIHLEVIKEKLFLKASDSDIGLKSYIFTQSSDKEGVGTINGKKFLDIISCLKDSNIILETKDDSLAIKQNKSSFKLPMFDADEFPEFPVIDPKVSIEVNAPFLVDAFKKIAPVIEQTSHKRELAGILMQFDQKHQTLSVVGTDTKRLSYTQLEKISIHSTEEDISCILPKRALLEILKLFYENFSFKSDGMLAVIENEMHTFFTKLIDGNYPDYQKILPKEYISSFTLGKEEFKESIKLCSSLSSTIKLTLEKNNALFESLDSEHSETAKTSVEIEKGLDIEKAFHLGVNAKFFLEALNALGTTQFVLRCNEPSSPFLIQESLDEKQSHLNAKISTLMMPITL
notes: DNA polymerase III beta subunit (β-clamp) of Helicobacter pylori 26695; domains I-III span Met1 to Leu374; Cloned between NcoI and XhoI of pET 28(b); the reverse primer has no stop codon, so a C-terminal vector His tag is likely (surmised); By the printed forward primer the ATG of the NcoI site is out of frame with the gene's own ATG; also called Hpβ-clamp; H. pylori β-clamp; source: E. coli …
[1]
  Kd: 1250 nM
[2]
  stoichiometry N: 2
